Results as given in patent US7115711 (GENERAL HOSPITAL, dated 2006).

What was measured:
[1] = target: T1, LexA-TR (bacterial; rat, UniProt P0A7C2 1-202; P18113 170-461, limits assumed); assay: yeast interaction trap, X-gal plate, with T3; W = white (no interaction)
T1 construct: also called Lex fusion TR
T1 sequence (looked up): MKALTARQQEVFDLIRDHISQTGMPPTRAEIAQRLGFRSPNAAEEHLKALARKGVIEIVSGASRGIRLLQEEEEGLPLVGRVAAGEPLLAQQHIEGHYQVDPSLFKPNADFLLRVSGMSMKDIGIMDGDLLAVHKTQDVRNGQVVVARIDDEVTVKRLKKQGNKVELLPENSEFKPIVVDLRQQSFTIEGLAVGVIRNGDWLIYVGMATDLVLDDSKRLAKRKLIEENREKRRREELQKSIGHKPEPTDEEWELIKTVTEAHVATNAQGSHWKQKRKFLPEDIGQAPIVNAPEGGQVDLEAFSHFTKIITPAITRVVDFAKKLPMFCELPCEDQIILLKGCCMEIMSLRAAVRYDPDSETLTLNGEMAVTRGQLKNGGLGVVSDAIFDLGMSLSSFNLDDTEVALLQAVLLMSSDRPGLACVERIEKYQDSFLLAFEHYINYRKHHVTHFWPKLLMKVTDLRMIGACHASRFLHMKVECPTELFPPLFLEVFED
Experimental: (§1) Interactions of the RIP clones with other superfamily members, including RAR, TR, the glucocorticoid receptor (GR), and MB67, an orphan isolated in this lab (Baes et al., Mol. Cell. Biol. 14:1544–1552, 1994) were also tested using a series of appropriate LexA fusions. In particular, the experiments shown in Table 1 were carried out as follows. Yeast transformants containing a lacZ reporter gene under the control of LexA binding sites and the indicated B42- and Lex-fusion protein expression vectors were transferred onto galactose-Ura⁻His⁻Trp⁻ plates containing X-gal and incubated for two days. Relative levels of β-galactosidase activity were estimated and are depicted as follows: B, blue (strong interaction); LB, light blue (weak interaction); W, white (no interaction); nt, not tested. At least three separate colonies were tested on the same plate for interaction. To test the effects of ligands, 100 µl of a 10^-6M solution of the appropriate ligand was spread onto plates just before inoculation of cells (9-cis-RA for RXR, T3 for TR, and all-trans-RA for RAR). For B42-PPAR, the plasmid isolated from the screening was used. Both full length and truncated RAR fusions to LexA were tested with identical results for all the B42 fusions except B42-110, which was tested only with the full length fusion.

[2] = target: T2, LexA-MB67 (bacterial, UniProt P0A7C2 1-202; Q14994 76-348, limits assumed); assay: yeast interaction trap, X-gal plate; W = white (no interaction)
T2 construct: Made by PCR, 'analogous' to LexA-RXR and LexA-TR; also called Lex fusion MB67
T2 sequence (looked up): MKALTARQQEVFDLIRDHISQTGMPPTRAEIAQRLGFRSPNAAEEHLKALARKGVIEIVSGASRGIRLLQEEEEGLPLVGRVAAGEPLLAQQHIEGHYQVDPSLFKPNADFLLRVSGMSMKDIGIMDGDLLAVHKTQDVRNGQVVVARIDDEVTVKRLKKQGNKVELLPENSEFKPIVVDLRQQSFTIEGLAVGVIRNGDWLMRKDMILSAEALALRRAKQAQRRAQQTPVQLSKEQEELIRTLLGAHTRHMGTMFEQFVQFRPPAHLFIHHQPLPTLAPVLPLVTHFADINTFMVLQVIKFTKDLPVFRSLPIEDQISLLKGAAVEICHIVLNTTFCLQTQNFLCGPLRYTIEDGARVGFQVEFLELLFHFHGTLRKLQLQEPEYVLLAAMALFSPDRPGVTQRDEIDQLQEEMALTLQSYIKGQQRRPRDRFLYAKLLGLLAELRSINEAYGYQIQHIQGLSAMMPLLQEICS
Experimental: as §1

[3] = target: T3, Human RXRα protein (human, UniProt P19793 1-462, limits assumed); assay: gel shift of in vitro translated RIP with E. coli-expressed RXRα on labeled βRARE; the complex with RXR is seen on DNA
T3 construct: Used in the gel shifts
T3 sequence (looked up): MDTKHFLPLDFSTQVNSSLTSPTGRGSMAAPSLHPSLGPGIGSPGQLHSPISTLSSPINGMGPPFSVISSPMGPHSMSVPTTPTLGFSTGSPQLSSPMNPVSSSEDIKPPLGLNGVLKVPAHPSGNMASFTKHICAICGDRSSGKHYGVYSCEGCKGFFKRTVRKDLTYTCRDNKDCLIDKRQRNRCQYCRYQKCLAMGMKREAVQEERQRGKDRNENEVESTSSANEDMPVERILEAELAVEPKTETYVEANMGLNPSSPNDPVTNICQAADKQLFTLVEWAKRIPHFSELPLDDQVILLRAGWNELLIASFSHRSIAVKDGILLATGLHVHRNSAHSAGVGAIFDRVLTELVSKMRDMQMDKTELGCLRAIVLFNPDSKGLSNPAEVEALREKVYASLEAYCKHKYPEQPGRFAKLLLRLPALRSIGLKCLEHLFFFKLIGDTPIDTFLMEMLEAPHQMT
Experimental: The binding of the RIP14-2 isoform to this element was weaker than that of RIP14-1 when similar amounts of RIP14 proteins were used. […] Several other DNA elements were tested in the gel shift assay, including the retinoic acid response element from the promoter of the human RARβ2 isoform (βRARE) (de The et al., Nature 343:177–180, 1990). In the presence of RXR, the βRARE was bound by both the RIP14 isoforms and RIP15 (FIG. 8, panel B). Again, the binding of the RIP14-2/RXR heterodimer was weaker than the RIP14-1/RXR heterodimer when a similar amount of RIP14 proteins were used (FIG. 8, panel B, lanes 10 and 14).
RIP14 and RIP15 proteins were produced by in vitro translation (Promega TNT, Madison, Wis.) using expression vectors containing the RIP genes following a T7 promoter. To generate full length RIP14-2 constructs, fragments from RIP14-1 clone No. 15 containing regions from the middle of the E domain to the 3' end replaced the corresponding regions of RIP14-2 Clones No. 3 or 12, respectively. Sequences were confirmed by DNA sequencing. Human RXRα protein was expressed in E. coli using a bacterial expression vector based on the bacteriophage T7 promoter (Carter et al., Mol. Cell. Biol. in press., 1994). […]

[4] = target: T4, LexA-RXR (bacterial; human, UniProt P0A7C2 1-202; P19793 196-462, limits assumed); assay: yeast interaction trap screen; clones showing specific interaction with LexA-RXR; one clone starting at amino acid 170
T4 construct: also called Lex fusion RXR
T4 sequence (looked up): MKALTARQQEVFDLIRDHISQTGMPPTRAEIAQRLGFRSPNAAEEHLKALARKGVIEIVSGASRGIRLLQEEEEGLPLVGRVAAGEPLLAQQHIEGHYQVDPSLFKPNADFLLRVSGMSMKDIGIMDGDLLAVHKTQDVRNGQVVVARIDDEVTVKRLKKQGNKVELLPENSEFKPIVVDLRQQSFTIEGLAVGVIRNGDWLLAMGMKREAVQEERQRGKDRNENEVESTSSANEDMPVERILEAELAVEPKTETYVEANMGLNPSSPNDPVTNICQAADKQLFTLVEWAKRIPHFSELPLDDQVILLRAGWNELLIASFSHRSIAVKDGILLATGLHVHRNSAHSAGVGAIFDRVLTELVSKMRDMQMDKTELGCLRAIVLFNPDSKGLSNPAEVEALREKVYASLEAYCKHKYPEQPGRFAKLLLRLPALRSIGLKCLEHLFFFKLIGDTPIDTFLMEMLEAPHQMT
Experimental: (§2) From 3×10^6 primary yeast transformants, a number of β-gal expressing colonies were identified in two independent screens carried out in the presence or absence of 9-cis-RA. Since expression of the B42-cDNA fusion proteins was induced by growth on galactose, candidates obtained from each condition were tested for galactose-dependent expression of both β-gal and LEU2, in the presence or absence of 9-cis-RA, using appropriate indicator plates (see below).
(§3) Candidates showing specific interaction with LexA-RXR were sequenced across the B42 fusion junction using an appropriate vector primer, and additional sequence was determined. The deduced amino acid sequences were compared to those in the GenBank and EMBL databases using the GCG (Devereux et al., Nucleic Acids Res. 12:387–395, 1984) and BLAST programs (Altschul et al., J. Mol. Biol. 215:403–410, 1990). […] All of these clones included intact ligand binding domains, as expected from the fact that the major heterodimerization function lies within that domain. For PPAR (Issemann et al., Nature 347:645–650, 1990), three clones started at amino acid 84, just N-terminal to the DNA binding (C) domain, four others started at 91, within the C domain, and one at 170, just past the C domain. For RAR (Leroy et al., EMBO J. 10:59–69), all six clones started at amino acid 132, within the C domain.

[5] = target: T4, LexA-RXR; assay: yeast interaction trap screen; clones showing specific interaction with LexA-RXR; all six clones start at amino acid 132
Experimental: as §2, §3

B1: B42-RIP15 (other, not shown: large carriers)
chain: EEQIRKKRIQKQQQQQPPPPSEPAASSSGRPAASPGTSEASSQGSGEGEGIQLTAAQELMIQQLVAAQLQCNKRSFSDQPKVTPWPLGADPQSRDARQQRFAHFTELAIISVQEIVDFAKQVPGFLQLGREDQIALLKASTIEIMLLQTARRYNHETECITFLKDFTYSKDDFHRAGLQVEFINPIFEFSRAMRRLGLDDAEYALLIAINIFSADRPNVQEPSRVEALQQPYVEALLSYTRIKRPQDQLRFPRMLMKLVSLRTLSSVHSEQVFALRLQDKKLPPLLSEIWDVHE
notes: Original yeast clone; Its B42 fusion junction is near the beginning of the hinge (D) domain, with no residue number stated; also called B42 fusion 15; RIP15 chimera
B1: no binding [1]; no binding [2].

B2: RIP15 (receptor)
chain: MSSPTSSLDTPVPGNGSPQPSTSATSPTIKEEGQETDPPPGSEGSSSAYIVVILEPEDEPERKRKKGPAPKMLGHELCRVCGDKASGFHYNVLSCEGCKGFFRRSVVHGGAGRYACRGSGTCQMDAFMRRKCQLCRLRKCKEAGMREQCVLSEEQIRKKRIQKQQQQQPPPPSEPAASSSGRPAASPGTSEASSQGSGEGEGIQLTAAQELMIQQLVAAQLQCNKRSFSDQPKVTPWPLGADPQSRDARQQRFAHFTELAIISVQEIVDFAKQVPGFLQLGREDQIALLKASTIEIMLLQTARRYNHETECITFLKDFTYSKDDFHRAGLQVEFINPIFEFSRAMRRLGLDDAEYALLIAINIFSADRPNVQEPSRVEALQQPYVEALLSYTRIKRPQDQLRFPRMLMKLVSLRTLSSVHSEQVFALRLQDKKLPPLLSEIWDVHE
notes: Intact 446 amino acid protein; It was translated in vitro for gel shifts and expressed from a CDM vector in HepG2 cells
B2: binds [3].

B3: B42-PPAR clone starting at amino acid 170 (other, mouse, UniProt P23204 170-468, looked up, not shown: large carriers)
chain: AIRFGRMPRSEKAKLKAEILTCEHDLKDSETADLKSLGKRIHEAYLKNFNMNKVKARVILAGKTSNNPPFVIHDMETLCMAEKTLVAKMVANGVEDKEAEVRFFHCCQCMSVETVTELTEFAKAIPGFANLDLNDQVTLLKYGVYEAIFTMLSSLMNKDGMLIAYGNGFITREFLKNLRKPFCDIMEPKFDFAMKFNALELDDSDISLFVAAIICCGDRPGLLNIGYIEKLQEGIVHVLKLHLQSNHPDDTFLFPKLLQKMVDLRQLVTEHAQLVQVIKKTESDAALHPLLQEIYRDMY
notes: range 170-C-terminus; Only the start is stated; also called PPAR (one clone)
B3: binds [4].

B4: B42-RAR (other, mouse, UniProt P11416 132-462, looked up, not shown: large carriers)
chain: INKVTRNRCQYCRLQKCFDVGMSKESVRNDRNKKKKEAPKPECSESYTLTPEVGELIEKVRKAHQETFPALCQLGKYTTNNSSEQRVSLDIDLWDKFSELSTKCIIKTVEFAKQLPGFTTLTIADQITLLKAACLDILILRICTRYTPEQDTMTFSDGLTLNRTQMHNAGFGPLTDLVFAFANQLLPLEMDDAETGLLSAICLICGDRQDLEQPDKVDMLQEPLLEALKVYVRKRRPSRPHMFPKMLMKITDLRSISAKGAERVITLKMEIPGSMPPLIQEMLENSEGLDTLSGQSGGGTRDGGGLAPPPGSCSPSLSPSSHRSSPATQSP
notes: range 132-C-terminus; All six isolated clones start at amino acid 132; also called RARα (six clones)
B4: binds [5].
